Test [1] deals with recombinant Trypanosoma cruzi trans-sialidase (construct not stated for these experiments) (Trypanosoma cruzi) (UniProt Q26966).
Test [2] has as its target T1, recombinant Trypanosoma cruzi trans-sialidase (construct not stated for these experiments) (Trypanosoma cruzi, strain  …, UniProt Q26966). Kind of test: cell-based or functional assay.
Test [3] deals with T1, recombinant Trypanosoma cruzi …. The test can be described thus: SPR; BIAcore 2000; purified mAb 13G9 amine-coupled to a CM5 chip; TS (1 nM to 10 µM) injected at 50 µl/min in HBS-EP (150 mM NaCl, 0.05% P20, 10 mM HEPES pH 7.4); KD calculated from the kinetic constants; apparent. The conditions noted are these: both partners purified.
For test [4] the target is unchanged. Kind of test: ITC; raw data not shown; done in the laboratory of Dr. Alan Cooper; conditions not stated. The conditions noted are these: both partners purified. For orientation: In ITC the heat of successive injections is recorded.

B1: Fab fragment of mAb 13G9 (Fab, V domains shown)
VH: VKLQQSGVELVRPGTSVKMSCKAVGYTFTYDWIGWVKQRPGHGLEWIGDIYLGGGYINYNEKFKGKVILTADTSSSTAYMQLSSLTSEDSAIYYCARGHYDGSYFDYWGQGTTLTVSS
VL: DVLMTQTPTIMSASIGEEITLTCSASSSVSHMHWYQHKSGTSPKLLIYITSYLASGVPSRFSGSGSGTFYSLTISSVEAEDAADYYCHQWSTFPSTFGSGTKLEIK
As for B1, the IC50 of inhibition of TS activity (remnant activity of 2 ng TS with sialyllactose and [14C]-lactose, increasing amounts of purified Fab) in test [1] came out at 1.6 nM.

B2: TS-neutralizing mouse monoclonal antibody 13G9 (IgG2aκ) (antibody, V domains shown)
VH: VKLQQSGVELVRPGTSVKMSCKAVGYTFTYDWIGWVKQRPGHGLEWIGDIYLGGGYINYNEKFKGKVILTADTSSSTAYMQLSSLTSEDSAIYYCARGHYDGSYFDYWGQGTTLTVSS
VL: DVLMTQTPTIMSASIGEEITLTCSASSSVSHMHWYQHKSGTSPKLLIYITSYLASGVPSRFSGSGSGTFYSLTISSVEAEDAADYYCHQWSTFPSTFGSGTKLEIK
notes: they are those of the Fab heavy chain in PDB 3OPZ (chain H; also I and J); rest of the mouse IgG2a heavy chain constant region beyond the Fab (hinge, CH2, CH3); the antibody was typed as IgG2aκ; they are those of the Fab light chain in PDB 3OPZ (chain L; also M and N); also called mAb 13G9; 13G9 mAb; source: 13G9 hybridoma culture supernatant; purified (Protein A-Sepharose, MonoQ) or used as …
For the molecule B2, in test [2], the “IC50 of inhibition of TS activity (remnant activity of 2 ng TS with sialyllactose and [14C]-lactose, increasing amounts of whole 13G9 IgG)” value came out at 0.056 nM. In addition, the Kd was roughly 0.72 nM in test [3] and less than 1 nM in test [4].

These data come from publication PMC3252381, “Trypanosoma cruzi trans-Sialidase in Complex with a Neutralizing Antibody: Structure/Function Studies towards the Rational Design of Inhibitors” (PLoS Pathogens, 2012).
